Measurements taken from patent publication US20190127459 (published 2019).

Biological target: T1, mouse IL-22R (mouse, UniProt Q80XZ4)
T1 chain: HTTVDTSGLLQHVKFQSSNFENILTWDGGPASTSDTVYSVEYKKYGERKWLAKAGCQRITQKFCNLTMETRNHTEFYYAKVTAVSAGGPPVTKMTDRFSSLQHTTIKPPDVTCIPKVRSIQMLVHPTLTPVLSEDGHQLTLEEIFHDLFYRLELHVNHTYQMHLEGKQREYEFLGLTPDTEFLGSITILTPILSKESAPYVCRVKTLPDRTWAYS

B1: 230C9 (antibody, V domains shown)
VH: QVQLVESGGGLVQPGGSLRLSCAASGFTFSSYDMNWVRQAPGKGLEWVSSIYNDASNTAYSDSVKGRFTISRDNSKNTLYLQMNSLRAEDTAVYYCAKVGFSGTYYSESWGQGTLVTVSS
VL: SYELTQPSSVSVALGQTARITCQGGYYAHWYQQKPGQAPVLVIYGQNNRPSGIPERFSGSGAGNTATLTISRAQAEDEADYYCQSGSSSSNAVFGGGTKLTVL
**Q.** Does B1 bind?
**A.** no binding
